Percent reduction in methylation signal in comparison with wild-type Sho1 data for two substances are collected here from article PMC3428623.

This test concerns the target Pbs2-HKMT (S. cerevisiae) (UniProt P08018). The test is described as follows: proximity labelling.

Pbs2-HKMT (S. cerevisiae), sequence (P08018 whole entry): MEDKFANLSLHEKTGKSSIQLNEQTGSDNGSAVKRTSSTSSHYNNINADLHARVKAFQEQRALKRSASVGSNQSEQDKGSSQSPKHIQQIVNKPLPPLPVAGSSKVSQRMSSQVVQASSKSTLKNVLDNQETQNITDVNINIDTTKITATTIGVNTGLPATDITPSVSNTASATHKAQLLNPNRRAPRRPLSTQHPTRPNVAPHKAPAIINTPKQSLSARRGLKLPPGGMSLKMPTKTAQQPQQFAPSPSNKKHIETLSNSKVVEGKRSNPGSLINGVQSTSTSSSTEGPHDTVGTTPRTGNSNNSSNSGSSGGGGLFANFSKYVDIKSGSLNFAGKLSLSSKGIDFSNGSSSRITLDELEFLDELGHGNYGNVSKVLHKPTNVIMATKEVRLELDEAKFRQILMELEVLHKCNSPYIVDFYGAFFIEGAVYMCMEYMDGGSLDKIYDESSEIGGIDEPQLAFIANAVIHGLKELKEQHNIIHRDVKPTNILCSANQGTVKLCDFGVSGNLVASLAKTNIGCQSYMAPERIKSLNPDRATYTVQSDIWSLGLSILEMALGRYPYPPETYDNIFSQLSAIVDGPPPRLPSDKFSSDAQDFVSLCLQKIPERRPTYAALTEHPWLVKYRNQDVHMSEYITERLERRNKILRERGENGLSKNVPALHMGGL

For the substance Sho1-H3-HA Y8A mutant (natural protein), the percent reduction in methylation signal in comparison with wild-type Sho1 came out at 70%.

In the case of “Sho1-H3-HA Y54M mutant (natural protein)”, the percent reduction in methylation signal in comparison with wild-type Sho1 was determined as 92%.
